The values below are quoted from earlier work in article PMC4965143.

Like-named read-outs stand apart in the source and are kept apart here.

The target of data set [1] is PGC-1α coactivator peptide (Homo sapiens) (UniProt Q9UBK2).
The target is the same in data set [2]. This is another data set of the same source.

UniProt Q9UBK2, sequence (Q9UBK2 whole entry): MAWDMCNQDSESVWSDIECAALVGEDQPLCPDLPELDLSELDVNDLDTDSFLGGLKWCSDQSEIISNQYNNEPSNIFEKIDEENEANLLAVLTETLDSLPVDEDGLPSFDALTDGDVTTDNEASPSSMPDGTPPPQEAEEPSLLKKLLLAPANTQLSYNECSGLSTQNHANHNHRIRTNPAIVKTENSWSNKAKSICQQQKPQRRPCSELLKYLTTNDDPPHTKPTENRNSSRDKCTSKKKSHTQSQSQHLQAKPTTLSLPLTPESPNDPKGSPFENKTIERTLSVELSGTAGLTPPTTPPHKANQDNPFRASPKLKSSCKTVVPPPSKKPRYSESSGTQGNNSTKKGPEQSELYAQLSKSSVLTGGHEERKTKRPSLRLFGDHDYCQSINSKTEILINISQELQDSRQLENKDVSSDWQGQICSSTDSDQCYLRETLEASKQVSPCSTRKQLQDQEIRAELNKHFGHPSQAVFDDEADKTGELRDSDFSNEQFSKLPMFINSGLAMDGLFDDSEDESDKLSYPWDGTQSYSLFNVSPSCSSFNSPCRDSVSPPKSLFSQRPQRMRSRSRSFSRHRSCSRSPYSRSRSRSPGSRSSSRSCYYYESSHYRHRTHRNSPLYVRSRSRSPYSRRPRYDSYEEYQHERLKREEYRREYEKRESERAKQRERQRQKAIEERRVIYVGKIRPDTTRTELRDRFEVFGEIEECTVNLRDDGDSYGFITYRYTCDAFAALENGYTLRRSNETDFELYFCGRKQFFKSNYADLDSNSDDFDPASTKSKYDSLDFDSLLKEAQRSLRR

By Kd is commonly meant the free concentration of one partner at which half of the binding sites on the other are occupied at equilibrium, for simple one-to-one binding. As for SF-1 LBD (from UniProt Q13285), the Kd is 6 µM in data set [1] and 8.5 µM in data set [2].
